T1: ING2-PHD
T1 chain: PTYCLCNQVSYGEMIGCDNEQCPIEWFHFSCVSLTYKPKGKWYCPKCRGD

T2: KDM4A-DTD D945S (human, UniProt O75164 895-1011, D945S)
T2 sequence: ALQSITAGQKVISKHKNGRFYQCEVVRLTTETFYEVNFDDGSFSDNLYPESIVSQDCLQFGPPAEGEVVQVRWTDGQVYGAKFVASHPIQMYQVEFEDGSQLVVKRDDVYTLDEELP

T3: KDM4A-DTD N940A (human, UniProt O75164 895-1011, N940A)
T3 sequence: T2 sequence with N46A, S51D

T4: KDM4B-DTD N951G (Homo sapiens)
T4 chain: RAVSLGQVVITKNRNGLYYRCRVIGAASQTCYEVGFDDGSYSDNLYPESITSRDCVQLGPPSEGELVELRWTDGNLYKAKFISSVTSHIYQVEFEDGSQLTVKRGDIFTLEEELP

T5: KDM4B-DTD N951M (Homo sapiens)
T5 chain: T4 chain with G35M

B1: KDM4A-DTD N931D (domain or fragment)
chain: T2 sequence with N37D, S51D
B2: KDM4A-DTD triple mutant N931D/D939R/D945R (DRR) (domain or fragment)
chain: T2 sequence with N37D, D45R, S51R
modifications: HaloTag-Alexa 660 ligand conjugated to the HaloTag in the far western
B3: KDM4A double tudor domain (KDM4A-DTD), HaloTag-tagged, wild type (domain or fragment)
chain: T2 sequence with S51D
B4: KDM4C double tudor domain (KDM4C-DTD), HaloTag-tagged, wild type (domain or fragment)
chain: KVISVGQTVITKHRNTRYYSCRVMAVTSQTFYEVMFDDGSFSRDTFPEDIVSRDCLKLGPPAEGEVVQVKWPDGKLYGAKYFGSNIAHMYQVEFEDGSQIAMKREDIYTLDEELP
B5: KDM4B double tudor domain (KDM4B-DTD), HaloTag-tagged, wild type (domain or fragment)
chain: T4 chain with G35N

Common to all, as to experiment: FP
Assay [1] concerns the target B2.
Assay [2] addresses B5.
The target of assay [3] is B4.
Assay [4] addresses B3.
Assay [5] addresses B1.
Assay [6] deals with B5.
Assay [7] deals with B4.
Assay [8] addresses H3K9me3.
The target of assay [9] is H3K27me3.
Assay [10] has as its target H3K27me3. The source holds these as a separate data set.
The target in assay [11] is H3T3phK4me3 peptide (UniProt P68431, phosphothreonine at T3; trimethyl-lysine at K4).
Assay [12] concerns the target H3K27me3. This is another data set of the same source.
Assay [13] concerns the target T1, ING2-PHD.
The target of assay [14] is T2, KDM4A-DTD D945S.
In assay [15] the target is T3, KDM4A-DTD N940A.
In assay [16] the target is KDM4B-DTD S965D (human, UniProt O94953 917-1031, S965D).
Chain of KDM4B-DTD S965D (O94953 917-1031 S965D): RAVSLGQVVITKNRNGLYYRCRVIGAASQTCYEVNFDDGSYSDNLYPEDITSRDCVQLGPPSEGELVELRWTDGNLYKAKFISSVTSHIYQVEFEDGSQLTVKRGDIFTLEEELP
Assay [17] addresses T4, KDM4B-DTD N951G.
Assay [18] deals with T5, KDM4B-DTD N951M.
Assay [19] concerns the target KDM4B-DTD N960A (human, UniProt O94953 917-1031, N960A).
Assay [20] addresses H3K9me3. This is another data set of the same source.

Numbering of substitutions follows the chain as printed. Numbers in names are those of the source. Where “and” joins values, the source holds several entries; their conditions need not be identical. Equal values may be shown once. Read-outs that look alike come from different tables or passages of the source. Non-standard residues stand in square brackets, D forms with d. No end group written: not given here. Me2a = asymmetric dimethyl (on arginine); pT = C[C@@H](OP(=O)(O)O)[C@H](N)C(=O)O

Chain of KDM4B-DTD N960A (O94953 917-1031 N960A): as the sequence (O94953 917-1031 S965D) above, with N44A, D49S counted along it

With ARKSTGGK(Me3)APRKQLATK (also: fluorescein label, end not given here) [H3K14me3 peptide, fluorescein-labelled], the Kd in assay [1] worked out at 158 µM; in assay [2] it was 165 µM; in assay [3] it was 166 µM; in [4] it was 108 µM.
Turning to RKQLATK(Me2)AARKSAPAT (also: fluorescein label, end not given here) [H3K23me2 peptide (dimethylated H3K23), fluorescein-labelled], the values for the Kd in [5], in [6] and in assay [7] were 2.6 µM, 35.3 µM and 180 µM, respectively.
B1: the Kd is 83.3 µM in assay [8] and 98.6 µM in [9].
In turn, B2 came in with a Kd in assay [10] of 570 µM.
As for B3, the Kd in [11] and in assay [12] was 122 µM each time.
On to RKQLA[pT]K(Me3)AARKSAPAT (also: fluorescein label, end not given here) [H3T22phK23me3 peptide, fluorescein-labelled], for which the Kd was 18.7 µM in assay [5]; 130 µM and 259 µM in assay [6]; 507 µM in [7].
RKQLATK(Me)AARKSAPAT (also: fluorescein label, end not given here) [H3K23me1 peptide (monomethylated H3K23), fluorescein-labelled]: the Kd turned out to be 31.1 µM in assay [5], 155 µM in assay [6] and 520 µM in [7].
Molecule B4 showed a Kd in assay [12] of 104 µM.
With ARTK(Me3)QTARKSTGGK (also: fluorescein label, end not given here) [H3K4me3 peptide, fluorescein-labelled], the Kd in assay [1] stood at 370 µM; in assay [4], 2.7 µM; in [5] it was 2.7 µM; in [13], 5.8 µM; in assay [14], 151 µM; in [15], 74.1 µM.
Take RKQLATK(Me3)AAR(Me2a)KSAPAT (also: fluorescein label, end not given here) [H3K23me3R26me2a peptide, fluorescein-labelled]: the results for the Kd in assay [5], in [6] and in assay [7] were 6 µM, 53.1 µM and 43.7 µM, respectively.
Take RKQLATK(Me3)AARKSAPAT (also: fluorescein label, end not given here) [H3 (17-32) K23me3 peptide, fluorescein-labelled]: the dissociation constant Kd stood at 73.6 µM in assay [3]; 257 µM in assay [13]; 16.4 µM in assay [16]; 32.6 µM in assay [17]; 41.4 µM in assay [18]; 107 µM in assay [19].
Take RKQLATK(Me3)AAAKSAPAT (also: fluorescein label, end not given here) [H3K23me3R26A peptide, fluorescein-labelled]: the Kd is 27.7 µM in assay [5], 180 µM in [6] and 72.5 µM in [7].
Consider AKRHRK(Me3)VLRDN (also: fluorescein label, end not given here) [H4K20me3 peptide, fluorescein-labelled], for which the Kd in assay [2] was 60 µM; in assay [3] it was 58.7 µM.
As for B5, the Kd in assay [20] worked out at 800 µM; in assay [12], 140 µM.

By Kd is commonly meant a measure of binding affinity in units of concentration.

Source of the values: PMC5114558 (2016).
